Measurements reported in patent US20060073149A1 (published 2006).

Biological target: T1, Soluble Aβ 1-40 (UniProt P05067 672-711)
T1 construct: domain: Aβ 1-40
Experiment: SPR (BIAcore), alternate method: antibody captured on protein A or A/G, Aβ 1-40 in flow, 5 h dissociation, 1:1 model with mass transfer; alternate method: antibody captured on protein A or A/G, 5 h dissociation
Description: Protein A or protein A/G is immobilized via amine coupling to flow cells 1 and 2 of a B1 or CM5 sensor chip (BIAcore). The test antibody is then captured in flow cell 2 at desired levels (usually a 10-60 second injection of antibody) and 5 minutes is allowed for the antibody to stabilize. […] Each concentration is injected over the surface for 5 minutes at a flow rate of 50 μL/min. […] Aβ 1-40 and antibody are then eluted from both flow cells with a 40 second injection of glycine (pH 1.5). The signal is allowed to stabilize for 2 minutes before the next cycle. The data from flow cell 1 is subtracted from flow cell 2 to account for any bulk shifts due to buffer differences or non-specific binding to the sensor chip or protein A. The various concentrations are injected randomly and each concentration is run in duplicate. Two 0 nM runs are used to control for any dissociation of antibody from the protein A or A/G capture surface. The data is analyzed using the Biaevalution software. A 1:1 model with mass transfer and a local Rmax is used as the best fit for the data.

- Kd: 0.4 nM
B1: humanized 266 antibody (antibody, human IgG1, kappa, V domains shown)
VH: EVQLVESGGGLVQPGGSLRLSCAASGFTFSRYSMSWVRQAPGKGLELVAQINSVGNSTYYPDTVKGRFTISRDNAKNTLYLQMNSLRAEDTAVYYCASGDYWGQGTLVTVSS
VL: DVVMTQSPLSLPVTLGQPASISCRSSQSLIYSDGNAYLHWFLQKPGQSPRLLIYKVSNRFSGVPDRFSGSGSGTDFTLKISRVEAEDVGVYYCSQSTHVPWTFGQGTKVEIKR
